Read-outs that look alike come from different tables or passages of the source.

Experiment [1] has as its target wt^Sd (Scalloped residues 223-440), N-biotinylated-Avitagged (Drosophila melanogaster) (UniProt P30052). In words: SPR. In general terms: In SPR one partner is held on a chip, and binding of the other changes the refractive index at the surface.
Experiment [2] has as its target N-terminally V5-tagged Asp272Ala^TEAD4 (full length) (human) (UniProt Q15561). In words: co-IP.
The target of experiment [3] is TEAD4 (recombinant protein of the TR-FRET and SPR assays) (human). Briefly: AlphaScreen or HTRF. In general terms: Bead proximity is the source of the signal in Alpha formats.
Experiment [4] shares this target. In words: SPR.
Experiment [5] shares this target. In words: SPR. This is another data set of the same source.

Chain of wt^Sd (Scalloped residues 223-440), N-biotinylated-Avitagged (Drosophila melanogaster) (P30052 223-440): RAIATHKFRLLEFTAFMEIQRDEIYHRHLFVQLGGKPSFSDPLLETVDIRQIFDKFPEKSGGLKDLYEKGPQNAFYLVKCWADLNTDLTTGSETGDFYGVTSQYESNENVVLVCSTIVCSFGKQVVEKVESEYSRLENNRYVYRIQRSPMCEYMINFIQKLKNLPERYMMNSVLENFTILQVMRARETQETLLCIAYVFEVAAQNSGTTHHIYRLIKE
Chain of N-terminally V5-tagged Asp272Ala^TEAD4 (full length) (human) (Q15561 whole entry D272A): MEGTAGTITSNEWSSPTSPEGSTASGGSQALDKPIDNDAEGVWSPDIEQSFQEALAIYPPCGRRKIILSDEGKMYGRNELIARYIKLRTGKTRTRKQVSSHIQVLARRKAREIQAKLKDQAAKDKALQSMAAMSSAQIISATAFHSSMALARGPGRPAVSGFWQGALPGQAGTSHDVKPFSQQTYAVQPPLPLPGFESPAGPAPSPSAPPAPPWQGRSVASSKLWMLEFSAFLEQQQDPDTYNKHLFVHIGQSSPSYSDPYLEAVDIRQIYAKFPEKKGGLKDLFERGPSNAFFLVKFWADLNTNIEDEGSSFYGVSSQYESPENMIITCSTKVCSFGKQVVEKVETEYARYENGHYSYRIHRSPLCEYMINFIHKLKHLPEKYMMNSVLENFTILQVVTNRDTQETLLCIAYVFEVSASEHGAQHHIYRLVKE

One may read the Kd as the concentration at which binding is half-saturated. “Vg^298-337 (Vestigial Sd-binding domain without the putative β-strand) (from UniProt Q26366 298-337) (peptide)” displayed a Kd in experiment [1] of 61 nM.

“(FLAG)3-delΩ^VGLL2 (full-length VGLL2 with the Ω-loop deleted) (from UniProt Q8N8G2-1 1-317) (natural protein)” came in with a fold reduction of co-IP (IP over input) against wt^TEAD4 with wt^VGLL2 in experiment [2] of 2 fold.

As a reminder, the IC50 is the midpoint of a concentration-inhibition curve. “VGLL3^140-154 (region of human VGLL3 aligned with the Ω-loop of Vg) (from UniProt A8MV65 140-154) (peptide)”: the half-maximal inhibitory concentration (IC50) in experiment [3] was above 500000 nM.

On to “YAP^85-99 (Ω-loop of YAP) (from UniProt P46937 85-99) (peptide)”, for which, in experiment [3], the IC50 amounted to 98000 nM.

B1: Vg^288-337 (TONDU domain and Ω-loop of Vestigial) (peptide)
peptide: Ac-CVVFTNYSGDTASQVDEHFSRALNYNNKDSKESSSPMSNRNFPPSFWNSN-NH2
With B1, the Kd turned out to be 3.1 nM in experiment [4] and 4.1 nM in experiment [5].

B2: Vg^323-337 (Ω-loop of Vestigial) (peptide)
peptide: Ac-PMSNRNFPPSFWNSN-NH2
Consider B2, for which the IC50 in experiment [3] is 157000 nM.

B3: VGLL2^135-149 (Ω-loop region of human VGLL2) (peptide)
peptide: Ac-PMSQRSFPASFWNSA-NH2
As to B3, the half-maximal inhibitory concentration (IC50) in experiment [3] came out at 133000 nM.

B4: VGLL2^85-149 (β-strand:α-helix:Ω-loop of human VGLL2) (peptide)
peptide: Ac-CVLFTYFQGDISSVVDEHFSRALSQPSSYSPSCTSSKAPRSSGPWRDCSFPMSQRSFPASFWNSA-NH2
On to B4, for which the Kd in experiment [5] stood at 34 nM.

B5: VGLL2^85-108 (β-strand:α-helix of human VGLL2) (peptide)
peptide: Ac-CVLFTYFQGDISSVVDEHFSRALS-NH2
In the case of B5, the Kd in experiment [5] came out at 590 nM.

(Values after publication doi:10.1101/2020.05.21.107789.)
